pKd: −log10 of the molar value.
Experiments:
[1] = target: oncolytic virus M1 (OVM) virions (oncolytic virus M1 (Getah-like alphavirus)); assay: BLI; Octet RED96e; OVM loaded on aminopropylsilane (APS) biosensors in PBS; TPRA1-ECD-Fc (0.5-8 µM) or Fc (8 µM) in PBS with 0.02% Tween-20 and 1 mg/mL BSA; 1:1 binding model
[2] = target: oncolytic virus M1 (OVM) virions; assay: virus binding to cells measured by qRT-PCR; conditions: 22Rv1 cells expressing TPRA1 variants; parent: est. 1.4; read off a plot
[3] = GFP-positive 22Rv1 cells by flow cytometry, 48 h; conditions: glycan lost; control: wild-type TPRA1

“recombinant extracellular domain of TPRA1 fused to an Fc tag (TPRA1-ECD-Fc) (from UniProt Q86W33-1 1-47) (Fc fusion)” showed a pKd [1] of 7.04.

With “HA-tagged full-length TPRA1 (from UniProt Q86W33-1) N11Q; N23Q” the other: Relative change in binding [2] was 0.35.

In the case of “TPRA1 (transmembrane protein adipocyte-associated 1): N11/23Q”, the “other: susceptibility of cells to viral infection” value [3] was “decreases”.

Reference: article PMC12752648
